From PMC4194032 (Cell, 2014) come the findings set out here.

Test in all cases: split reporter
One assay addresses Heh1-VN (budding yeast) (UniProt Q03707).
The next assay has as its target T1, Snf7-VN (budding yeast, UniProt P39929 1-240).
T1 sequence (looked up): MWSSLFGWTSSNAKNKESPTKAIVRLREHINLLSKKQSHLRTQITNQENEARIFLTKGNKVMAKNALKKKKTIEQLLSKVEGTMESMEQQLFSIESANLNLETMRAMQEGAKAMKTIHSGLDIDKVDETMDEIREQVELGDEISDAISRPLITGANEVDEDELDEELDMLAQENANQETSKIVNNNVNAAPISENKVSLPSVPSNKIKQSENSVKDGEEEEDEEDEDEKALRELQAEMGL

The next assay addresses T2, Heh2-VN (budding yeast, UniProt Q03281 1-663).
T2 sequence (looked up): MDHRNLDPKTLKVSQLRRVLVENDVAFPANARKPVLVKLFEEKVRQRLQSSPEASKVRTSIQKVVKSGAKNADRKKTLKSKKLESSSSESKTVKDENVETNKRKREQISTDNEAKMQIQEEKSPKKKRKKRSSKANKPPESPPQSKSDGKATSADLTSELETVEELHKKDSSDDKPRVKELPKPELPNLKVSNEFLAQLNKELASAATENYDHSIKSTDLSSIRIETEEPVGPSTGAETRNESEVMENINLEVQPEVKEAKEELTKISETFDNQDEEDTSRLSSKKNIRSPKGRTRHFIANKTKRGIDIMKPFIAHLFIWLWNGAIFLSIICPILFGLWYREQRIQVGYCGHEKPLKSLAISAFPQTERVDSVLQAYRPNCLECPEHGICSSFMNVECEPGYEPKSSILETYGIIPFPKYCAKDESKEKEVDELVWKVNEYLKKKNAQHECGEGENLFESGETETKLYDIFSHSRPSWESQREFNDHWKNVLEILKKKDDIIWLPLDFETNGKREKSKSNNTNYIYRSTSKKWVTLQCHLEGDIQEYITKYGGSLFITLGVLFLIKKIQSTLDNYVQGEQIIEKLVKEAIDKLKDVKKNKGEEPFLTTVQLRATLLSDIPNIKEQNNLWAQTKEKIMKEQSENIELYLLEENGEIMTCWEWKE

Heh1-VN (budding yeast), sequence (Q03707 whole entry): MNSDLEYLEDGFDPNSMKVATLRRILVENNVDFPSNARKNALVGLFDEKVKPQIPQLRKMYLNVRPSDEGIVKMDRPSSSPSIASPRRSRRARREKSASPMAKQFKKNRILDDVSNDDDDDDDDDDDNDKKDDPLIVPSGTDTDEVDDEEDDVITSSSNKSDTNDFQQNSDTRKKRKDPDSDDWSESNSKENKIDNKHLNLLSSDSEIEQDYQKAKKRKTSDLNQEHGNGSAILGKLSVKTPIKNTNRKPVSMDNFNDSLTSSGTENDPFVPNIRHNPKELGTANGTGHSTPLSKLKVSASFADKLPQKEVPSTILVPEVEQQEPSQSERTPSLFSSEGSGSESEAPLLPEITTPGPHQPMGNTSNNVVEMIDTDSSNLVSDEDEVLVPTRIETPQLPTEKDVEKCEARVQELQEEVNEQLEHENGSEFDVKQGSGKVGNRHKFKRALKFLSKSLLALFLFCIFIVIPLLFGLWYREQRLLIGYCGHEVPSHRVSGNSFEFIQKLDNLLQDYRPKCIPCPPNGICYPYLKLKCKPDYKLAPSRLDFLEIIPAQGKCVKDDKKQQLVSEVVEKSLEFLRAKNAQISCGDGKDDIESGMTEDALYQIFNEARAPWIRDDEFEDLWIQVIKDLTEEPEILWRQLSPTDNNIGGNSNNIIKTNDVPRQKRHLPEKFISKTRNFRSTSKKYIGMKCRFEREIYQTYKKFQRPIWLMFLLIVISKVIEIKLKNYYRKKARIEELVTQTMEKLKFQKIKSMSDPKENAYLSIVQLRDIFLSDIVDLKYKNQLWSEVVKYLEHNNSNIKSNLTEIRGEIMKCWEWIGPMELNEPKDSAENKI

With “Snf7-VC (from UniProt P39929 1-240) (natural protein)”, the percent of cells with Venus fluorescence with Heh1-VN (budding yeast) was 45 % of cells.

B1: Vps20-VC (natural protein, budding yeast, UniProt Q04272 1-221, looked up)
chain: MGQKSSKVHITKTDRAILEVKRSKDEIHKFTRRTDNLILVEKSQLKDLIRKNPENYKSNMKVRFLLKRIHYQEHLLQQASDQLINLENMVSTLEFKMVEKQFINGLKNGNEILKKLNKEFSNVDELMDDVQDQIAYQNEINETLSRSLVGTSNYEDDLDKELDALESELNPEKMNNAKVANMPSTEGLPSLPQGEQTEQKEREEFATEERSDTKEPLALLS
Turning to B1, the “percent of cells with Venus fluorescence” value with Snf7-VN was ~90 % of cells.

B2: Bro1-VC (natural protein, budding yeast, UniProt P48582 1-844, looked up)
chain: MKPYLFDLKLKDTEKLDWKKGLSSYLKKSYGSSQWRTFYDEKATSELDHLRNNANGELAPSSLSEQNLKYYSFLEHLYFRLGSKGSRLKMDFTWYDAEYSSAQKGLKYTQHTLAFEKSCTLFNIAVIFTQIARENINEDYKNSIANLTKAFSCFEYLSENFLNSPSVDLQSENTRFLANICHAEAQELFVLKLLNDQISSKQYTLISKLSRATCNLFQKCHDFMKEIDDDVAIYGEPKWKTTVTCKLHFYKSLSAYYHGLHLEEENRVGEAIAFLDFSMQQLISSLPFKTWLVEFIDFDGFKETLEKKQKELIKDNDFIYHESVPAVVQVDSIKALDAIKSPTWEKILEPYMQDVANKCDSLYRGIIPLDVYEKESIYSEEKATLLRKQVEETETANLEYSSFIEFTNLPRLLSDLEKQFSDGNIFSNTDTQGQLMRDQIQTWCKFIQTNEFRDIEEQMNKIVFKRKQILEILSALPNDQKENVTKLKSSLVAASNSDEKLFACVKPHIVEINLLNDNGKIWKKFDEFNRNTPPQPSLLDIDDTKNDKILELLKQVKGHAEDLRTLKEERSRNLSELRDEINNDDITKLLIINKGKSDVELKDLFEVELEKFEPLSTRIEATIYKQSSMIDDIKAKLDEIFHLSNFKDKSSGEEKFLEDRKNFFDKLQEAVKSFSIFASDLPKGIEFYDSLFNMSRDLAERVRVAKQTEDSTANSPAPPLPPLDSKASVVGGPPLLPQKSAAFQSLSRQGLNLGDQFQNLKISAGSDLPQGPGIPPRTYEASPYAATPTMAAPPVPPKQSQEDMYDLRRRKAVENEERELQENPTSFYNRPSVFDENMYSKYSS
Take B2: the “percent of cells with Venus fluorescence” value with Snf7-VN is ~90 % of cells.

B3: Snf7-VC (natural protein, budding yeast, UniProt P39929 1-240, looked up)
chain: MWSSLFGWTSSNAKNKESPTKAIVRLREHINLLSKKQSHLRTQITNQENEARIFLTKGNKVMAKNALKKKKTIEQLLSKVEGTMESMEQQLFSIESANLNLETMRAMQEGAKAMKTIHSGLDIDKVDETMDEIREQVELGDEISDAISRPLITGANEVDEDELDEELDMLAQENANQETSKIVNNNVNAAPISENKVSLPSVPSNKIKQSENSVKDGEEEEDEEDEDEKALRELQAEMGL
Consider B3, for which the “percent of cells with Venus fluorescence” value with Heh2-VN is ~18 % of cells.
